The text below walks through data of paper PMC2592828.

Assay in all cases: far-Western, overlay or dot blot
Experiment [1] has as its target zw10 (endogenous, ~90-kD band) (UniProt O43264).
The target in experiment [2] is p150^Glued subunit of dynactin (endogenous, band in total extracts) (UniProt Q14203).
Experiment [3] addresses recombinant IC-2C T89D mutant.
Experiment [4] has as its target recombinant IC-2C T89E mutant.

Sequence of UniProt O43264 (O43264 whole entry): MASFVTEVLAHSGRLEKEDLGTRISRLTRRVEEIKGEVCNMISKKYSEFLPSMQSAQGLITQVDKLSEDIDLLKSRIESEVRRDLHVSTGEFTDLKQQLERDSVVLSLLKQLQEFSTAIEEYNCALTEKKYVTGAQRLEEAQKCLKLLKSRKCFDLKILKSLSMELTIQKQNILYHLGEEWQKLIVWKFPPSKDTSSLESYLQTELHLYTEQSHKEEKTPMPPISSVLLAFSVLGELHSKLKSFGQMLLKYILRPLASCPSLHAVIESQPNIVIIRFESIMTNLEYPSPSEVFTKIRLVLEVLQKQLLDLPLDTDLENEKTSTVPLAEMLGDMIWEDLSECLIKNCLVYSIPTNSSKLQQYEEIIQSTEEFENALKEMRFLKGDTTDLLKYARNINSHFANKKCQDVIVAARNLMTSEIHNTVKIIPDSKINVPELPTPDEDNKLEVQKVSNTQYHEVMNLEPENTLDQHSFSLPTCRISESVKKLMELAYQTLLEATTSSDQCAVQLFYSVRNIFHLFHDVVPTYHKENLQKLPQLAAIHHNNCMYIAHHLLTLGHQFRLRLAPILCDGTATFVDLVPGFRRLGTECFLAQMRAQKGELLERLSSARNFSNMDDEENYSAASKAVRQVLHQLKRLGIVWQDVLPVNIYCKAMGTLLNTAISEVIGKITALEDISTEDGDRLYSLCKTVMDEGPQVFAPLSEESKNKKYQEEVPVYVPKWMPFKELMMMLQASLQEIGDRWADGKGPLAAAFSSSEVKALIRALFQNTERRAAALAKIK
Sequence of UniProt Q14203 (Q14203 whole entry): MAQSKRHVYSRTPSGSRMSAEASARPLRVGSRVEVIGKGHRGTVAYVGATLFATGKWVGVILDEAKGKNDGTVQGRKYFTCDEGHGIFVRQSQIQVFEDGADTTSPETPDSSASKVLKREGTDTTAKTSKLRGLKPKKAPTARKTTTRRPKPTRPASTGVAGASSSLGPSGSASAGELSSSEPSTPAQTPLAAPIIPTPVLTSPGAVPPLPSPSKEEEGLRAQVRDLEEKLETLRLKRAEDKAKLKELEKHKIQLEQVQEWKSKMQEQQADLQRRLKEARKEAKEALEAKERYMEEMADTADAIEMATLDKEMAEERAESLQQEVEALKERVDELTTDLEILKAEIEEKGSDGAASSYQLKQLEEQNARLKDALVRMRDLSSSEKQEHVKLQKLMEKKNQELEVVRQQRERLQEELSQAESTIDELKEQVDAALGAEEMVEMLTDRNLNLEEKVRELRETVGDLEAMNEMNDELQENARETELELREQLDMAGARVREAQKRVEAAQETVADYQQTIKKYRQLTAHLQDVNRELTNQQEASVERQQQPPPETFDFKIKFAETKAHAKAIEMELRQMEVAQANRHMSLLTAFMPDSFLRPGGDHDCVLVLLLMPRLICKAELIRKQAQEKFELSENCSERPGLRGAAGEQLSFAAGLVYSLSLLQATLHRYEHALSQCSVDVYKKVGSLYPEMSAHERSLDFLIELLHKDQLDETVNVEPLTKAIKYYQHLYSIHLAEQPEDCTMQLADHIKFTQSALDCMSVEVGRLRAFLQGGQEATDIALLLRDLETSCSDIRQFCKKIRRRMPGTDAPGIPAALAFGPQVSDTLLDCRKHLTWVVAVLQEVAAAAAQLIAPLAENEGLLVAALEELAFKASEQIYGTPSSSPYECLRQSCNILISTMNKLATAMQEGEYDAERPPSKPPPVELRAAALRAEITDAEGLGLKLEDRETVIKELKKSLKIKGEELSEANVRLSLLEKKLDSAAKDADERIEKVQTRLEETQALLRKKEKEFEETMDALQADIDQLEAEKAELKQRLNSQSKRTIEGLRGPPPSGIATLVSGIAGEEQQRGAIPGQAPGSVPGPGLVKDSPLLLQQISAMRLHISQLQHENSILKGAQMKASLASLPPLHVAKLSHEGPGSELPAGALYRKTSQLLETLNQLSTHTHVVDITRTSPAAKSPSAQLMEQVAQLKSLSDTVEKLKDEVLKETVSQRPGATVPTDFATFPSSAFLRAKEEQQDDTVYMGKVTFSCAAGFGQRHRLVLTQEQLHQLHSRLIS

As to “recombinant IC-2C fragment (residues 1-284) phosphorylated in vitro (phospho-ICs) (domain or fragment)”, in experiment [1], the overlay signal as percent of the endogenous IC band was found to be 96.2% and the percent increase in binding against dephospho-ICs stood at 100%. This substance also yielded an overlay signal as percent of the endogenous IC band in experiment [2] of 55.4%.
For “recombinant IC-2C fragment spanning residues 1-284 (dephosphorylated ICs) (domain or fragment)”, the overlay signal as percent of the endogenous IC band in experiment [1] is 31.1%; in experiment [2], 83%.
As for “recombinant p150^Glued fragment spanning residues 1-811 (from UniProt P28023 1-811) (domain or fragment)”, the fold reduction in binding against the wild type in experiment [3] and in experiment [4] was 4 fold in each case.
